The text below walks through data of patent US6774222, “Molecular computing elements, gates and flip-flops” (The United States of America as represented by the …).

Data set [1] has as its target T1, Fis (Factor for Inversion Stimulation) (Escherichia coli, UniProt P0A6R3 P0A6R3:1-98). In words: EMSA; single shift only, no doubly shifted band up to 2200 nM Fis with 1 nM DNA; sites bound mutually exclusively. The settings on record: chain copies: 2 (dimer, stated); label: 5' biotin; self-complementary linear duplex. The protocol: (§1) FIG. 9 illustrates the mobility shift experiments for 11 and 7 base pair overlapping and 23 base pair separated Fis sites. Each lane contains increasing concentrations of Fis protein, beginning with no Fis, Fis diluted 1 to 64, etc. The 1:1 dilution is at 2200 nM Fis. This concentration was chosen intentionally so that with 1 nM DNA per reaction, the protein/DNA ratio is 2-fold higher than that needed to strongly shift DNA containing the 8.9 bit wild-type hin distal Fis site (Bruist et al. (1987) *Genes Dev.* 1: 762–772). Marker lanes (M) contain 10 ng of biotinylated […] hinfI digested DNA standards (Life Technologies, Inc.). Sizes are indicated in bp. The lowest band in most lanes of the figure is single-stranded oligonucleotide DNA. In the "Separated 23" experiment, at high concentrations, Fis proteins are apparently able to capture the single-stranded DNA when it has folded into a hairpin. This produces a faint band near the 100 bp marker.

Data set [2] has as its target T1, Fis (Factor for Inversion Stimulation). The experiment in a line: EMSA; double shift; both sites bound simultaneously; up to 2200 nM Fis, 1 nM DNA. Particulars: chain copies: 2 (dimer, stated); label: 5' biotin; self-complementary linear duplex. The protocol:
as §1
Background: In EMSA bound probe runs differently from free probe, usually more slowly.

T1 sequence (P0A6R3 whole entry, one chain of several): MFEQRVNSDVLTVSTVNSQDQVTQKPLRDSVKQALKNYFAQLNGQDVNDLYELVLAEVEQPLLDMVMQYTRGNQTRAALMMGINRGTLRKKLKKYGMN

B1: overlap 11 Fis sites (dsDNA)
DNA 1: TATTCTTTGCTCAAAATTTGATCAAATTTTGAGCAAAGAATA
DNA 2: B1 DNA 1
In the case of B1, the binding result in data set [1] is listed as “binds”.

B2: overlap 7 Fis sites (dsDNA)
DNA 1: AGGCTTTTGCTCAAAGTTTAAACTTTGAGCAAAAGCCT
DNA 2: B2 DNA 1
B2: the binding result in data set [1] is recorded as “binds”.

B3: separated 23 Fis sites (dsDNA)
DNA 1: GGAATTCTTTGCTCAAAATTTGATCAGGATCCTGATCAAATTTTGAGCAAAGAATTCC
DNA 2: B3 DNA 1
As to B3, the binding result in data set [2] is “binds”.
